This passage reports PDH activity against the amount of CgE1p (37, 150, 300, 600 pmol) with a fixed amount of CgE2-E3 (18 pmol), stoichiometry N and Km results from article PMC7568260, “In vitro reconstitution and characterization of pyruvate dehydrogenase and 2‐oxoglutarate dehydrogenase hybrid complex from Corynebacterium glutamicum” (MicrobiologyOpen, 2020).

For series [1], the target named is CgE2-E3 subcomplex (Corynebacterium glutamicum) (UniProt Q8NNJ2).
Series [2] has as its target CgE1p (thiamine diphosphate-dependent pyruvate dehydrogenase, AceE), C-terminal His- and Flag-tagged (Corynebacterium glutamicum) (UniProt Q8NNF6). Put plainly: SEC; HiLoad 26/600 Superdex 200 pg or Superose 6 10/300 GL column, TESG10N buffer; mixtures incubated on ice for 30 min before the run; masses estimated against size standards; fractions read by SDS-PAGE (CBB) or Western blot.

Series [3] has as its target CgE1o (thiamine diphosphate-dependent 2-oxoglutarate dehydrogenase, OdhA), C-terminal His-tagged (Corynebacterium glutamicum) (UniProt Q8NRC3). The description is as above.
Substrate in series [4]: CC(=O)C(=O)O
Put plainly: purified protein. Type of series: biochemical, Corynebacterium glutamicum. As to conditions: 0.2 mM CoA, 0.3 mM thiamine pyrophosphate, 3 mM L-cysteine, 5 mM MgCl2, 1 mM APAD+ (NAD+ analogue), TES-NaOH pH 7.6, 30 °C, CgE1p 15 μg with CgE2-E3 15 μg.

Substrate in series [5]: O=C(O)CCC(=O)C(=O)O
Put plainly: purified protein. As to conditions: 0.2 mM CoA, 0.3 mM thiamine pyrophosphate, 3 mM L-cysteine, 5 mM MgCl2, 1 mM APAD+ (NAD+ analogue), TES-NaOH pH 7.6, 30 °C, CgE1o 20 μg with CgE2-E3 15 μg. Type of series: biochemical, Corynebacterium glutamicum.

As a reminder, the stoichiometry N is the number of molecules, sites or subunits per partner or assembly. What is called Km is the concentration of substrate that gives half-maximal velocity.

The molecule “CgE1p (thiamine diphosphate-dependent pyruvate dehydrogenase, AceE), C-terminal His- and Flag-tagged (from UniProt Q8NNF6 1-922) (enzyme)” displayed a PDH activity against the amount of CgE1p (37, 150, 300, 600 pmol) with a fixed amount of CgE2-E3 (18 pmol) in series [1] of 150 pmol. The stoichiometry N in series [2] is 2.

With “CgE1o (thiamine diphosphate-dependent 2-oxoglutarate dehydrogenase, OdhA), C-terminal His-tagged (from UniProt Q8NRC3 1-1221) (enzyme)”, the stoichiometry N in series [3] is 6.

B1: reconstituted PDH complex (CgE1p with CgE2‐E3) (Corynebacterium glutamicum ATCC 13032) (protein)
chain: MADQAKLGGKPSDDSNFAMIRDGVASYLNDSDPEETNEWMDSLDGLLQESSPERARYLMLRLLERASAKRVSLPPMTSTDYVNTIPTSMEPEFPGDEEMEKRYRRWIRWNAAIMVHRAQRPGIGVGGHISTYAGAAPLYEVGFNHFFRGKDHPGGGDQIFFQGHASPGMYARAFMEGRLSEDDLDGFRQEVSREQGGIPSYPHPHGMKDFWEFPTVSMGLGPMDAIYQARFNRYLENRGIKDTSDQHVWAFLGDGEMDEPESRGLIQQAALNNLDNLTFVVNCNLQRLDGPVRGNTKIIQELESFFRGAGWSVIKVVWGREWDELLEKDQDGALVEIMNNTSDGDYQTFKANDGAYVREHFFGRDPRTAKLVENMTDEEIWKLPRGGHDYRKVYAAYKRALETKDRPTVILAHTIKGYGLGHNFEGRNATHQMKKLTLDDLKLFRDKQGIPITDEQLEKDPYLPPYYHPGEDAPEIKYMKERRAALGGYLPERRENYDPIQVPPLDKLRSVRKGSGKQQIATTMATVRTFKELMRDKGLADRLVPIIPDEARTFGLDSWFPTLKIYNPHGQNYVPVDHDLMLSYREAPEGQILHEGINEAGSVASFIAAGTSYATHGKAMIPLYIFYSMFGFQRTGDSIWAAADQMARGFLLGATAGRTTLTGEGLQHMDGHSPVLASTNEGVETYDPSFAYEIAHLVHRGIDRMYGPGKGEDVIYYITIYNEPTPQPAEPEGLDVEGLHKGIYLYSRGEGTGHEANILASGVGMQWALKAASILEADYGVRANIYSATSWVNLARDGAARNKAQLRNPGADAGEAFVTTQLKQTSGPYVAVSDFSTDLPNQIREWVPGDYTVLGADGFGFSDTRPAARRFFNIDAESIVVAVLNSLAREGKIDVSVAAQAAEKFKLDDPTSVSVDPNAPEE
notes: CgE1p C-terminal His (and Flag) tag, pKH4, 102,826 Da, dimer in solution; CgE2 (70,905 Da, lipoylated) co-expressed with N-terminal His/Flag CgE3 (50,652 Da), pKH13; E. coli BL21-CodonPlus (DE3); tags not cut; gel-filtration purified; with Dihydrolipoamide acetyltransferase component of pyruvate dehydrogenase complex (E2); Dihydrolipoyl dehydrogenase (E3)
For the molecule B1, the Km in series [4] was determined as 3.5 ± 0.2 mM.

B2: reconstituted ODH complex (CgE1o with CgE2‐E3) (Corynebacterium glutamicum ATCC 13032) (protein)
chain: SSASTFGQNAWLVDEMFQQFQKDPKSVDKEWRELFEAQGGPNTTPATTEAQPSAPKESAKPAPKAAPAAKAAPRVETKPADKTAPKAKESSVPQQPKLPEPGQTPIRGIFKSIAKNMDISLEIPTATSVRDMPARLMFENRAMVNDQLKRTRGGKISFTHIIGYAMVKAVMAHPDMNNSYDVIDGKPTLIVPEHINLGLAIDLPQKDGSRALVVAAIKETEKMNFSEFLAAYEDIVARSRKGKLTMDDYQGVTVSLTNPGGIGTRHSVPRLTKGQGTIIGVGSMDYPAEFQGASEDRLAELGVGKLVTITSTYDHRVIQGAVSGEFLRTMSRLLTDDSFWDEIFDAMNVPYTPMRWAQDVPNTGVDKNTRVMQLIEAYRSRGHLIADTNPLSWVQPGMPVPDHRDLDIETHNLTIWDLDRTFNVGGFGGKETMTLREVLSRLRAAYTLKVGSEYTHILDRDERTWLQDRLEAGMPKPTQAEQKYILQKLNAAEAFENFLQTKYVGQKRFSLEGAEALIPLMDSAIDTAAGQGLDEVVIGMPHRGRLNVLFNIVGKPLASIFNEFEGQMEQGQIGGSGDVKYHLGSEGQHLQMFGDGEIKVSLTANPSHLEAVNPVMEGIVRAKQDYLDKGVDGKTVVPLLLHGDAAFAGLGIVPETINLAKLRGYDVGGTIHIVVNNQIGFTTTPDSSRSMHYATDYAKAFGCPVFHVNGDDPEAVVWVGQLATEYRRRFGKDVFIDLVCYRLRGHNEADDPSMTQPKMYELITGRETVRAQYTEDLLGRGDLSNEDAEAVVRDFHDQMESVFNEVKEGGKKQAEAQTGITGSQKLPHGLETNISREELLELGQAFANTPEGFNYHPRVAPVAKKRVSSVTEGGIDWAWGELLAFGSLANSGRLVRLAGEDSRRGTFTQRHAVAIDPATAEEFNPLHELAQSKGNNGKFLVYNSALTEYAGMGFEYGYSVGNEDSIVAWEAQFGDFANGAQTIIDEYVSSGEAKWGQTSKLILLLPHGYEGQGPDHSSARIERFLQLCAEGSMTVAQPSTPANHFHLLRRHALSDLKRPLVIFTPKSMLRNKAAASAPEDFTEVTKFQSVINDPNVADAAKVKKVMLVSGKLYYELAKRKEKDGRDDIAIVRIEMLHPIPFNRISEALAGYPNAEEVLFVQDEPANQGPWPFYQEHLPELIPNMPKMRRVSRRAQSSTATGVAKVHQLEEKQLIDEAFEA
notes: CgE1o C-terminal His tag, pAA62, 134,664 Da, mainly hexamer alone; CgE2 (70,905 Da, lipoylated) co-expressed with N-terminal His/Flag CgE3 (50,652 Da), pKH13; E. coli BL21-CodonPlus (DE3); tags not cut; gel-filtration purified; complex about 940 kDa; with Dihydrolipoamide acetyltransferase component of pyruvate dehydrogenase complex (E2); Dihydrolipoyl dehydrogenase (E3)
Take B2: in series [5], the Km is 0.010 ± 0.001 mM.
